This assay addresses T1, c-kit, endogenous in FDC-P1 cells (mouse, UniProt P05532 25-979).
T1 construct: whole, on cells
As to the kind of experiment: co-immunoprecipitation with anti-CXCR4 from FDC-P1 whole cell lysates.

T1 sequence (P05532 25-979): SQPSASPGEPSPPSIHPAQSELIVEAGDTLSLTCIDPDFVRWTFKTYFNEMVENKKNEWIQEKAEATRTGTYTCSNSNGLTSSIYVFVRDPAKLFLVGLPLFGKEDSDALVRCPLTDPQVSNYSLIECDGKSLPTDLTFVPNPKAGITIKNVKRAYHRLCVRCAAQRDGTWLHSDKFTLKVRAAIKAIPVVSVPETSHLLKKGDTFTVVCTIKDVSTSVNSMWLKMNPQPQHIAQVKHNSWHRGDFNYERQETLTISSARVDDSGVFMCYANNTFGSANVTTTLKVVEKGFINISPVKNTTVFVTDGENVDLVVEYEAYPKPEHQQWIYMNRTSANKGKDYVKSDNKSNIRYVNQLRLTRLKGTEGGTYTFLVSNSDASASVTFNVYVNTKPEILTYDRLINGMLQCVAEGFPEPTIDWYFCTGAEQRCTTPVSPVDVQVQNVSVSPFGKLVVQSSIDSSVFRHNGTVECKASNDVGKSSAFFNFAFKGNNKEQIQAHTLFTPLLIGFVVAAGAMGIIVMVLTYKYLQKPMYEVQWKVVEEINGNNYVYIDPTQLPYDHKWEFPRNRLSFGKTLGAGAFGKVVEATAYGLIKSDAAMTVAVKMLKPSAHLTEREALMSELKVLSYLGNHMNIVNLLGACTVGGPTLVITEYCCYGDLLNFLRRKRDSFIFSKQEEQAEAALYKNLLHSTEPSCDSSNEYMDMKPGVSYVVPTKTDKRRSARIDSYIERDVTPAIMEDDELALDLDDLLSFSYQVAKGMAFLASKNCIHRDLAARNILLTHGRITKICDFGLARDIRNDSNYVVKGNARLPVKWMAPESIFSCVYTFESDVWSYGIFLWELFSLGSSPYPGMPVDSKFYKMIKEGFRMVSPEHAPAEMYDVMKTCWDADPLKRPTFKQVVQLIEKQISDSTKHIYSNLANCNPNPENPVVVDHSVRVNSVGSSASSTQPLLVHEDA

B1: CXCR4, endogenous in FDC-P1 cells (receptor, mouse, UniProt P70658 1-359, looked up)
chain: MEPISVSIYTSDNYSEEVGSGDYDSNKEPCFRDENVHFNRIFLPTIYFIIFLTGIVGNGLVILVMGYQKKLRSMTDKYRLHLSVADLLFVITLPFWAVDAMADWYFGKFLCKAVHIIYTVNLYSSVLILAFISLDRYLAIVHATNSQRPRKLLAEKAVYVGVWIPALLLTIPDFIFADVSQGDISQGDDRYICDRLYPDSLWMVVFQFQHIMVGLILPGIVILSCYCIIISKLSHSKGHQKRKALKTTVILILAFFACWLPYYVGISIDSFILLGVIKQGCDFESIVHKWISITEALAFFHCCLNPILYAFLGAKFKSSAQHALNSMSRGSSLKILSKGKRGGHSSVSTESESSSFHSS
notes: whole, on cells; Immunoprecipitated with anti-CXCR4 from whole cell lysates in the co-immunoprecipitation
With B1, the binding result is recorded as “no binding”.

Values taken from patent publication US20100061978A1 (UNIVERSITY OF BRITISH COLUMBIA, published 2010).
